Ends that are not written are not given here.
T1: adrenomedullin receptor (receptor binding assay)
T1 chain 1: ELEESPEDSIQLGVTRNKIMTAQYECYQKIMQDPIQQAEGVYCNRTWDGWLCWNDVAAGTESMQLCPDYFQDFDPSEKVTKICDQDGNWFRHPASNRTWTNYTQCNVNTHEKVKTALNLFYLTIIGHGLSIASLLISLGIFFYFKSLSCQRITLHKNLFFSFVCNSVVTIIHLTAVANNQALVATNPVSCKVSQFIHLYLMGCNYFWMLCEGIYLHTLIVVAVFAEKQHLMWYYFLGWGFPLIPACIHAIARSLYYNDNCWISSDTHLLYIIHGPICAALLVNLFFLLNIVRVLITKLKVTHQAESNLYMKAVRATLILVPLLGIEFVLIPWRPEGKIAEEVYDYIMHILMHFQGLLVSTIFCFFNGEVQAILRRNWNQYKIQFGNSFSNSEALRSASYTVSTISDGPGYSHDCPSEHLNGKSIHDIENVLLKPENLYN
T1 chain 2: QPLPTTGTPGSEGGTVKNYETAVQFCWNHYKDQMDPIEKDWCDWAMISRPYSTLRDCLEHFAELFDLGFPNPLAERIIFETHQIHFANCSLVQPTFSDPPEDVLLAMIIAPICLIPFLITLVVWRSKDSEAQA

B1: Human AFP-6 [8-47] (peptide)
peptide: VGCVLGTCQVQNLSHRLWQLMGPAGRQDSAPVDPSSPHSY-NH2
modifications: not fully specified; ends and bridges not checked
B2: AFP-6 analog SEQ ID NO: 35 (peptide)
peptide: VGCVLGTCQVQNLSHRLWQLMGPAGRQDSAPVEPSSPHSY-NH2
modifications: ends and bridges not checked
B3: AFP-6 analog SEQ ID NO: 31 (peptide)
peptide: GCNTATCQVQNLSHRLWQLRQDSAPVDPSSPHSY-NH2
modifications: ends and bridges not checked
B4: AFP-6 analog SEQ ID NO: 30 (peptide)
peptide: VCNTATCQVQNLSHRLWQLRQDSAPVDPSSPHSY-NH2
modifications: ends and bridges not checked
B5: AFP-6 analog SEQ ID NO: 37 (peptide)
peptide: GCNTATCQVQNLSHRLWQLRQDSAPVEPSSPHSY-NH2
modifications: ends and bridges not checked
B6: AFP-6 analog SEQ ID NO: 38 (peptide)
peptide: GCSNLSTCQVQNLSHRLWQLRQDSAPVEPSSPHSY-NH2
modifications: ends and bridges not checked
B7: AFP-6 analog SEQ ID NO: 39 (peptide)
peptide: GCGNLSTCQVQNLSHRLWQLRQDSAPVEPSSPHSY-NH2
modifications: ends and bridges not checked
B8: AFP-6 analog SEQ ID NO: 19 (peptide)
peptide: CVLGTCQVQNLSHRLWQLRQESAPVEPSSPHSY-NH2
modifications: ends and bridges not checked
B9: AFP-6 analog SEQ ID NO: 26 (peptide)
peptide: GMVLGTMQVQNLSHRLWQLMGPAGRQDSAPVDPSSPHSY-NH2
B10: AFP-6 analog SEQ ID NO: 40 (peptide)
peptide: GCVLGTCQVQNLSHRLWQLRQESAPVEPSSPHSY-NH2
modifications: ends and bridges not checked
B11: AFP-6 analog SEQ ID NO: 27 (peptide)
peptide: VGMVLGTMQVQNLSHRLWQLRQDSAPVDPSSPHSY-NH2
B12: AFP-6 analog SEQ ID NO: 14 (peptide)
peptide: VQNLSHRLWQLMGPAGRQDSAPVDPSSPHSY-NH2
B13: AFP-6 analog SEQ ID NO: 25 (peptide)
peptide: TQAQLLRVGMVLGTMQVQNLSHRLWQLMGPAGRQDSAPVDPSSPHSY-NH2
B14: AFP-6 analog SEQ ID NO: 17 (peptide)
peptide: TQAQLLRVGCVLGTCQVQNLSHRLWQLDSAPVDPSSPHSY-NH2
modifications: ends and bridges not checked

These binders were tested against T2, calcitonin receptor (receptor binding assay) (assay: calcitonin receptor binding assay, method not described).
T2 construct: also called rCalcitonin RBA; CT

IC50 | Binder
24 nM | B1
153 nM | B2
51 nM | B3
128 nM | B4
121 nM | B5
17 nM | B6
31 nM | B7
247 nM | B8

Target: T1, adrenomedullin receptor (receptor …)
Assay: adrenomedullin receptor binding assay, method not described

IC50 | Binder
37 nM | B9
1000 nM | B10
1000 nM | B11
59 nM | B12
120 nM | B13
304 nM | B14
6.4 nM | B1
37 nM | B2
1000 nM | B3
1000 nM | B4
1000 nM | B5
1000 nM | B7
1000 nM | B8

The binders below were run against T3, CGRP receptor (membranes prepared from SK-N-MC cells) (UniProt Q16602 23-461; O60894 27-148, limits assumed) (assay: radioligand displacement, 125I-hCGRP, SK-N-MC cell membranes).
T3 construct: whole, on cells; Endogenous receptor in SK-N-MC cell membranes; also called CGRP receptors; CGRP RBA
T3 sequence (O60894 27-148 limits assumed, chain 2 of 2, one chain of several): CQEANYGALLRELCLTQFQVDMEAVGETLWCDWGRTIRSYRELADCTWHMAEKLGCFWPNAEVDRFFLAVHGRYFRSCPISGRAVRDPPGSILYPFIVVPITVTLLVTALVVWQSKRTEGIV
Experimental: (§1) Solutions were incubated for 60 minutes at 2 C. […] Filters were washed immediately before filtration with 5 ml cold PBS, and immediately after filtration with 15 ml cold PBS. […] Competition curves were generated by measuring binding in the presence of 10⁻¹² to 10⁻⁶ M unlabeled test compound and were analyzed by nonlinear regression using a 4-parameter logistic equation (INPLOT program; […] Software, San Diego, Calif.).

IC50 | Binder
26 nM | B9
80 nM | B13
10.5 nM | B14
4.7 nM | B2
18 nM | B3
37 nM | B4
130 nM | B5
208 nM | B6
12.7 nM | B8

What follows are binders tested against amylin receptor (nucleus accumbens membranes prepared from rat brain) (rat, UniProt P32214 25-516) (assay: radioligand displacement, 125I-rat amylin, rat nucleus accumbens membranes).
Chain of amylin receptor (nucleus accumbens membranes prepared from rat brain) (P32214 25-516): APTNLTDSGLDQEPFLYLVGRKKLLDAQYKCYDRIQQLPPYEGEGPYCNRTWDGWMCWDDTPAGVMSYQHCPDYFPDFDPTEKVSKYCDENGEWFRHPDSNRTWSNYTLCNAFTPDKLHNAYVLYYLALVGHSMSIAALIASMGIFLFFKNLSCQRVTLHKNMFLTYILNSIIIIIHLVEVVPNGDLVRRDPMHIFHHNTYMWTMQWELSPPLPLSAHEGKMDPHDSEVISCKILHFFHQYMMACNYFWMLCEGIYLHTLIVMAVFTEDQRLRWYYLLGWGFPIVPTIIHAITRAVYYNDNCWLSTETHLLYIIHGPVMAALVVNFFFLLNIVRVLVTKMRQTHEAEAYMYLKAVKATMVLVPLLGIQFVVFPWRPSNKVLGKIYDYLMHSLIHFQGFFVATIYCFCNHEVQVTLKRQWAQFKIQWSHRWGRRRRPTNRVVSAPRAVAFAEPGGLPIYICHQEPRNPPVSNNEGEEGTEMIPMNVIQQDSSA
Experimental: Male Sprague-Dawley® rats (200-250) grams were sacrificed by decapitation. Brains were removed and place in cold phosphate-buffered saline (PBS). From the ventral surface, cuts were made rostral to the hypothalamus, bounded laterally by the olfactory tracts and extending at a 45° angle medially from these tracts. This basal forebrain tissue, containing the nucleus accumbens and surrounding regions, was weighed and homogenized in ice-cold 20 mM HEPES buffer (20 mM HEPES acid, pH adjusted to 7.4 with NaOH at 23° C.). Membranes were washed three times in fresh buffer by centrifugation for 15 minutes at 48,000×g. The final membrane pellet was resuspended in 20 mM HEPES buffer containing 0.2 mM phenylmethylsulfonyl fluoride (PMSF).
as §1

IC50 | Binder
48 nM | B9
139 nM | B13
209 nM | B14
12 nM | B1
17 nM | B2
12 nM | B3
19 nM | B4
39 nM | B5
9.9 nM | B6
14 nM | B7
29 nM | B8

Source: patent US20080207501A1 (AMYLIN PHARMACEUTICALS, published 2008)
